Results published in US7071301.

What was measured:
Test in all cases: cell-based or functional assay
[1] = biological target: ERR Mutant 10 (mouse) (UniProt Q09143)
[2] = biological target: human H13 (human) (UniProt P30825)
[3] = biological target: ERR Mutant 3 (mouse) (UniProt Q09143)
[4] = biological target: ERR Mutant 4 (mouse) (UniProt Q09143)
[5] = biological target: Chimera I (mouse-human chimeric receptor, first part from ERR) (mouse; human)
[6] = biological target: Chimera III (H13 with NcoI-NcoI fragment from ERR) (human / mouse)
[7] = biological target: ERR Mutant 5 (mouse) (UniProt Q09143)
[8] = biological target: ERR Mutant 7 (mouse) (UniProt Q09143)
[9] = biological target: Chimera II (mouse-human chimeric receptor, last part from ERR) (human; mouse)
[10] = biological target: ERR Mutant 1 (mouse) (UniProt Q09143)
[11] = biological target: ERR Mutant 11 (mouse) (UniProt Q09143)
[12] = biological target: ERR Mutant 2 (mouse) (UniProt Q09143)
[13] = biological target: ERR Mutant 8 (mouse) (UniProt Q09143)
[14] = biological target: ERR Mutant 6 (mouse) (UniProt Q09143)
[15] = biological target: ERR Mutant 9 (mouse) (UniProt Q09143)
[16] = biological target: murine ecotropic retroviral receptor (ERR) (mouse) (UniProt Q09143)

Chain of UniProt P30825 (P30825 other isoform, or with tags, fused parts or gaps): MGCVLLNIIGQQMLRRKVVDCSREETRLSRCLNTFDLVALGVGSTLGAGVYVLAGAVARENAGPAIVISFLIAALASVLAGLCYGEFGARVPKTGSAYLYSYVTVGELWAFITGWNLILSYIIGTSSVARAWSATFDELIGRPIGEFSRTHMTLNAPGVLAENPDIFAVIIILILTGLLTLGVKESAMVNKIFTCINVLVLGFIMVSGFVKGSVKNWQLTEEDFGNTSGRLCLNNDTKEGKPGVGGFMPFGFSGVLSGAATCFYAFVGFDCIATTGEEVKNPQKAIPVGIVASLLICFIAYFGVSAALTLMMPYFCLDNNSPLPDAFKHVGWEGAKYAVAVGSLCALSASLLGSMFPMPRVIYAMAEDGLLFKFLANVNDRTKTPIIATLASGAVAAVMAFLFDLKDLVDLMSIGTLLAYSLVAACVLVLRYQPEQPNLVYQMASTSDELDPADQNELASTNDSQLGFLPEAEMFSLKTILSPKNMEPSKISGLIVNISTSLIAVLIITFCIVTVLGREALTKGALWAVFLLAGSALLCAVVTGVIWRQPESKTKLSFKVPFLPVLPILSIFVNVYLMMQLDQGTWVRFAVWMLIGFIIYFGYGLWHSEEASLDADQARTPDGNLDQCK

For “recombinant MuLV-E, ψCRE/BAG virions (from UniProt P03385 34-469)”, the colonies [1] was 500 colonies, the numbers of G418-resistant colonies [2] was 0 colonies and the colonies [3] was 500 colonies. It also gave a colonies [4] of 500 colonies, a numbers of G418-resistant colonies [5] of 1000 colonies and a numbers of G418-resistant colonies [6] of 1000 colonies. The colonies [7] was 500 colonies, the colonies [8] was 0 colonies and the numbers of G418-resistant colonies [9] was 0 colonies. It also gave a colonies [10] of 500 colonies, a colonies [11] of 500 colonies and a colonies [12] of 500 colonies. It also gave a colonies [13] of 500 colonies, a colonies [14] of 500 colonies and a colonies [15] of 500 colonies. For the same substance, the numbers of G418-resistant colonies [16] was > 1000 colonies.
